Results on one molecule are retold here after PMC11405040, “PRMT5-mediated FUBP1 methylation accelerates prostate cancer progression” (The Journal of Clinical Investigation, 2024).

The target in this experiment is T1, FLAG-PRMT5 (UniProt O14744 1-637).
T1 construct: PRMT5, wild type; Enriched from HEK293T lysate by one FLAG step; cellular partners such as MEP50 may have come along (surmise); also called FLAG-PRMT5^WT; FLAG-tagged PRMT5; source: HEK293T, transfected, immunopurified on FLAG beads and eluted with FLAG peptide
Briefly: pull-down; His-FUBP1 (from E. coli) and FLAG-PRMT5 (enriched from HEK293T lysate) in vitro, with the PUBLISH peptide as competitor. The note with it: both partners purified.

T1 sequence (O14744 whole entry): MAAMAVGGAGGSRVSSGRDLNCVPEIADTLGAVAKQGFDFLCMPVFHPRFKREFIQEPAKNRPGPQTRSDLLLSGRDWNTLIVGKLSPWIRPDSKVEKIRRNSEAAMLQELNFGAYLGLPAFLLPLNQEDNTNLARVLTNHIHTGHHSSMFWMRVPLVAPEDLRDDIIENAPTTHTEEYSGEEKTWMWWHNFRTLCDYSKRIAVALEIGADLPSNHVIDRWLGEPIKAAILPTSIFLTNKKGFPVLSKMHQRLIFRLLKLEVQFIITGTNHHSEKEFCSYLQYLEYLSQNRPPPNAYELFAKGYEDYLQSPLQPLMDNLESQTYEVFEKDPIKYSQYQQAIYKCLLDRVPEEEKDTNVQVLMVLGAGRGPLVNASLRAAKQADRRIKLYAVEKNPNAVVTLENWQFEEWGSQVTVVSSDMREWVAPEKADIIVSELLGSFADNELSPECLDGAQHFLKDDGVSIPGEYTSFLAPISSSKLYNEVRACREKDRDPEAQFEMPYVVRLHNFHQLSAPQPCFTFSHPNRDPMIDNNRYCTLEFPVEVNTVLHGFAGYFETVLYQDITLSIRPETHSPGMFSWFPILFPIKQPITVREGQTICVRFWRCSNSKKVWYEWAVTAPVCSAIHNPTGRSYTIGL

B1: PRMT5-mediated FUBP1 methylation abolishing (PUBLISH) peptide (peptide, UniProt Q96AE4 353-367, looked up)
peptide: GPGPGGRGRGRGQGN
notes: FUBP1 amino acids 353-367, with R359/R361/R363; For cells it was delivered as BPAE/peptide nanocomplexes; also called PUBLISH^WT; source: synthetic peptide
Regarding B1, the binding result is reported as “binds”.
